Laboratory results reported in patent US20160084821A1.

Biological target: BRCA1 protein (mouse) (mouse) (UniProt P48754)
Assay: cell-based or functional assay

Sequence of UniProt P48754 (P48754 whole entry): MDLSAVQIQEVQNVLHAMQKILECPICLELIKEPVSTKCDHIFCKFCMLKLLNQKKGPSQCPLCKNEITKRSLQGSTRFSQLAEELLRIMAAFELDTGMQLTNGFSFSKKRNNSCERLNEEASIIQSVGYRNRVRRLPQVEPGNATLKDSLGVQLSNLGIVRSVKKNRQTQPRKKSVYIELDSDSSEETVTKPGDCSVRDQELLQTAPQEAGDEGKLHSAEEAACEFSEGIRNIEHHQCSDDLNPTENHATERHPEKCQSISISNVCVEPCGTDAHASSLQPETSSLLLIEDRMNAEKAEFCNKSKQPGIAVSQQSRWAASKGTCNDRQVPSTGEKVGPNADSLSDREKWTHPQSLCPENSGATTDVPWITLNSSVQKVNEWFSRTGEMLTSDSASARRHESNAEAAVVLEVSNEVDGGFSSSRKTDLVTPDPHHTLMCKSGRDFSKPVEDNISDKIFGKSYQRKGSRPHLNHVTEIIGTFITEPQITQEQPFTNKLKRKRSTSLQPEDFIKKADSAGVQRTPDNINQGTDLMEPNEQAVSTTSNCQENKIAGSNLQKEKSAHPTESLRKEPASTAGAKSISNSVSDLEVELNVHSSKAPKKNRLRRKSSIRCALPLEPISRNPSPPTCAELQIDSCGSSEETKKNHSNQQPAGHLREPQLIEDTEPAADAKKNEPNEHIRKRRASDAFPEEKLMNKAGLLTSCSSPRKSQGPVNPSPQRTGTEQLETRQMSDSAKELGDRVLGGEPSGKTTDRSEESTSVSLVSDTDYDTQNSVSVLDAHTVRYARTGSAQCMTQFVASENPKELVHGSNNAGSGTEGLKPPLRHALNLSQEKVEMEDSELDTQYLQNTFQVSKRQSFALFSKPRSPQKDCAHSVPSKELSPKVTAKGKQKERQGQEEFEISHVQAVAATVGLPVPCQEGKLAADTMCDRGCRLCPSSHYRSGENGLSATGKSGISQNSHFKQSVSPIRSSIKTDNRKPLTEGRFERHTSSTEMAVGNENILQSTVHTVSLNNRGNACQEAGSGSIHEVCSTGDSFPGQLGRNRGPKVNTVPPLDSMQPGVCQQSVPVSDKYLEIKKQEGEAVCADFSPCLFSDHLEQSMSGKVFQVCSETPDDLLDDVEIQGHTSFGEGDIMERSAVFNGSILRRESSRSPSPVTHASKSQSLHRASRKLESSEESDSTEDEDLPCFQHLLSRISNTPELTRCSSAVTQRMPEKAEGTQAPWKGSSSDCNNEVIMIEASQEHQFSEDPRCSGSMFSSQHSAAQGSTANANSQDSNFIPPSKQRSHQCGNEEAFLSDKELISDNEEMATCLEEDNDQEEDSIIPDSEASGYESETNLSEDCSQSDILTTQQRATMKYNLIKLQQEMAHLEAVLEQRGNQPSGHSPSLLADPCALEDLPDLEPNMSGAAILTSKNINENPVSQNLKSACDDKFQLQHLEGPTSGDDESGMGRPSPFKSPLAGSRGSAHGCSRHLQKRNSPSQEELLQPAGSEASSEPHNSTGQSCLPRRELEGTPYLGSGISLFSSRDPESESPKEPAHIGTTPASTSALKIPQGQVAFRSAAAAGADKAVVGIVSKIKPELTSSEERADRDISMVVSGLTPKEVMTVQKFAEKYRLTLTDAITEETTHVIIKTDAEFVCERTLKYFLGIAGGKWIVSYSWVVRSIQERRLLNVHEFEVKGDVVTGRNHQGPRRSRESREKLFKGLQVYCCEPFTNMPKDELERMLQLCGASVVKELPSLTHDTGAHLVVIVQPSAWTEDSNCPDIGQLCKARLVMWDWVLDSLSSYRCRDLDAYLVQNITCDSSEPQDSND

- anti-FANCD2 foci co-localized with regions of intense anti-BRCA1 staining (20 pachytene nuclei): 65%
Substance: FANCD2 protein (mouse, on meiotic chromosomes of spermatocytes) (from UniProt Q80V62 1-1450)
